The target in this assay is sACE2_(2).v2.4-IgG1 (human) (UniProt Q9BYF1). Put plainly: BLI. Background: In BLI a coated tip is dipped into the sample, and binding shifts an interference pattern.

Bounds are passed on as bounds.

The values below come from article PMC7781310.

The Kd is a measure of binding affinity in units of concentration. The low end stands for tighter binding, the high end for weaker binding. As a reminder, the koff is the rate constant with which the complex falls apart. Low values mean a long-lived complex, high ones a short-lived complex.

For “SARS-CoV-2 RBD-8h N501Y (from UniProt P0DTC2 333-529) (domain or fragment)”, the dissociation constant Kd is less than 0.1 nM.

With “SARS-CoV-2 RBD-8h Y449K (from UniProt P0DTC2 333-529) (domain or fragment)”, the koff was found to be 0.004 s⁻¹.
